Results as given in the nanobody polyreactivity screen of Harvey et al. (2022).

Assay: yeast display, Sf9 membrane polyspecificity reagent, FACS + sequencing; frameworks hold sequencing errors
Procedure, shortened: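 In a synthetic yeast display library (Saccharomyces cerevisiae BJ5465), nanobody expression was induced with galactose for 36–48 hours. FACS gates were set low and high (top ~1%) using anti-HA fluorescence for expression and streptavidin fluorescence for binding of the Sf9 membrane reagent. Each polyreactivity label is drawn from the gate of origin.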

Row | Sequence | polyreactivity (PSR sort gate)
1 | QVQLVESVGGLVQAGGSLRLSCAASGRIFLIYSMGWYRQAPGKERELVADISKGGSSTYYADSVKGRFTISRDNAKNTVYLQMNSLKPEDSAVYYCAASGRWTGRQAAYDYWGQGTQVTVSS | high polyreactivity
2 | QVQLVESVGGLVQAGGSLRLSCAASGRIFLWYAMGWYRQAPGKERELVAAISGSGGSTSYADSVKGRITISRDNAKNTVYLQMNSLKPEDTAVYYCAALYRTWARYKVYYWGQGTQVTVSS | high polyreactivity
3 | QVQLVESVGGLVQAGGSLRLSCAASGRIFSVNAMGWYRQAPGKERELVAAITTRGGTTYYADSVKGRFTISRDNAKNTVYLQMNSLKPEDTAVYYCAAESSWYVYWEWAHDYWGQGTQVTVSS | low polyreactivity
4 | QVQLVESVGGLVQAGGSLRLSCAASGRIFSVYTMGWYRQAPGKERELVAAISSGASTNYADSVKGRFTISRDNAKNTVYLQMNSLKPEDTAVYYCNAQWYLRLGASKTWVDVDYWGQGTQVTVSS | low polyreactivity
5 | QVQLVESVGGLVQAGGSLRLSCAASGRISNDYAMGWYRQAPGKERELVATITFSGGDTYYADSVKGRFTISRDNAKNTVYLQMNSLKPEETAVYYCAASKWRSYSGVWWRLLFDYWGQGTQVTVSS | low polyreactivity
6 | QVQLVESVGGLVQAGGSLRLSCAASGRTFDSNAMGWYRQAPGKERELVAAISYSGGSTYYADSVKGRFTISRDNAKNTVYLQMNSLKPEDTAVYYCNAGAVHKKPARDYWGQGTQVTVSS | low polyreactivity
7 | QVQLVESVGGLVQAGGSLRLSCAASGRTFGRYAMGWYRQAPGKERELVAGISRSGDSTHYADSVKGRFTISRDNAKNTVYLQMNSLKPEDTAVYYCNKETPTIGARKYEYWGQGTQVTVSS | low polyreactivity
8 | QVQLVESVGGLVQAGGSLRLSCAASGRTFRFYTMGWYRQAPGKERELVADISWTSGRTYYADSVKGRFTISRDNAKNTVYLQMKSLKPEDTAVYYCAAYFFSRYSLYDYWGQGTQVTVSS | high polyreactivity
9 | QVQLVESVGGLVQAGGSLRLSCAASGRTFSGNAMGWYIQAPGKERELVAGISTSGGSTYYADSVKGRFTISRDNSKNTVYLQMNSLKPEDTAVYYCNARSRYRYYRSFGGDYWGQGTQVTVSS | high polyreactivity
10 | QVQLVESVGGLVQAGGSLRLSCAASGRTFYTYAMGWYRQAPGKERELVAAISSSGSTYYADSVKGRFTISRDNAKKTVYLQMNSLKPEDTAVYYCNARTSRYRRGGDSWGQGTQVTVSS | high polyreactivity
11 | QVQLVESVGGLVQAGGSLRLSCAASGRTIVSNAMGWYRQAPGKERELVAAITRGSRTYYADSVKGRFTISRDNAKNTVYLQMNSLKPEDTAVYYCNARHVRYPFTGNYWGQGTQVTVSS | high polyreactivity
12 | QVQLVESVGGLVQAGGSLRLSCAASGRTVGGNAMGWYRQAPGKERELVAAINRSGGTTYYADSVKGRFTISRDNAKNTVYLQMNSLKPEDTAVYYCAARRTVSATRMGYWGQGTQVTVSS | high polyreactivity
13 | QVQLVESVGGLVQAGGSLRLSCAASGSIFGPNAMGWYRQAPGKERELVAAISLSTGSTYYADSVKGRFTISRDTAKNTVYLQMNSLKPEDTAVYYCAAYYVTPIYYYWGQGTQVTVSS | low polyreactivity
14 | QVQLVESVGGLVQAGGSLRLSCAASGSIFGTYAMGWYRQAPGKERELVAAISWRGGTYYADSVKGRFTISRDNAKNTVYLQMNSLKPEDTAVYYCNKLYTHRALGRLDYWGQGTQVTVSS | high polyreactivity
15 | QVQLVESVGGLVQAGGSLRLSCAASGSIFGVYVMGWYRQAPGKERELVAAITRGASTNYADSVKGRFTISRDNAKNTVYLQMKSLKPEDTAVYYCAAEWWEEYGYYDDNDYWGQGTQVTVSS | low polyreactivity
16 | QVQLVESVGGLVQAGGSLRLSCAASGSIFITYAMGWYRQAPGKVRELVAAIRDSGDRTYYADSVKGRFTISRDNAKNTVYLQMNSLKPEDTAVYYCNARWQEPLKYDYWGQGTQVTVSS | low polyreactivity
17 | QVQLVESVGGLVQAGGSLRLSCAASGSIFTHNTMGWYRQAPGKERELVASIDSGASTNYADSVKGRFTISRDNAKNTVYLQMNSLKPEDTAVYYCAARDYDWGYPYYYWGQGTQVTVSS | low polyreactivity
18 | QVQLVESVGGLVQAGGSLRLSCAASGSIFVNNAMGWYRQAPGKERELVAAISRSGGSTYYADSVKGRFTISRDNAKNTVYLQMNSLKPEDTAVYYCATVHRSSTPPEFNYWGQGTQVTVSS | high polyreactivity
19 | QVQLVESVGGLVQAGGSLRLSCAASGSIFVTNALGWYRQAPGKERELVAAISSGGNTNYADSVKGRFTISRDNAKNTVYLQMNSLKPEDTAVYDCAKDPDKVDYVDMDYWGQGTQVTVSS | low polyreactivity
20 | QVQLVESVGGLVQAGGSLRLSCAASGSIFYDNGMGWYRQAPGNERELVAAISRGGTTNYADSVKGRFTISRDKAKNTVYLQMNSLKPEDTAVYYCNAETRFTYWGSWYDYWGQGTQVTVSS | low polyreactivity
21 | QVQLVESVGGLVQAGGSLRLSCAASGSIFYPYAMGWYRQAPGKERELVAAIRNGRSTYYADSVKGRFTISRDNAKNTVYLKMNSLKPEDTAVYYCAASVRRRHPFEYWGQGTQVTVSS | high polyreactivity
22 | QVQLVESVGGLVQAGGSLRLSCAASGSILAVNAMGWYRQAPGKERELVAAISSRGGSTSYADSVKGRYTISRDNAKNTVYLQMNSLKPEDTAVYYCAVRAVRRLRTSVPVRFYYWGQGTQVTVSS | high polyreactivity

Row | Sequence | polyreactivity (PSR sort gate)
23 | QVQLVESVGGLVQAGGSLRLSCAASGSILVSYAMGWSRQAPGKERELGPAITQGGGSTYYADCVKGRFTFSRDNAKNTVYLQMNSLKPEDTAVYYCSVDGLSDDRYSAGGDYWGQGTQVTVSS | low polyreactivity
24 | QVQLVESVGGLVQAGGSLRLSCAASGSNFPPYAMGWYRQAPGKERELVAAITSTDSTDYADSVKGRFTISRDNAKNTVYLQMNSLKPEDTAVYYCAAATGTYGRGGYYWGQGTQVTVSS | high polyreactivity
25 | QVQLVESVGGLVQAGGSLRLSCAASGSTFDKYAMGWYRQAPGKERELVATISQSGASTYYADSVKGRFTISRDNAKNTVYLQMNSLKPEDTAVYYCAARSSTRVWYWGRYYYWGQGTQVTVSS | high polyreactivity
26 | QVQLVESVGGLVQAGGSLRLSCAASGSTFGRNAMGWYRQAPGKERELVAAISSRGGGTYYADSVKGRFTISRDNAKNTVYLQMNSLKPEDTAVYYCAATYGYRRRNHYNYWGQGTQVTVSS | high polyreactivity
27 | QVQLVESVGGLVQAGGSLRLSCAASGSTFQSNGMGWYRQAPGKERELVAAITSTDASTSYADSVKGRFTISRDNAKITVYLQMNSLKPEDTAVYYCAADFPVASGAELDYWGQGTQVTVSS | low polyreactivity
28 | QVQLVESVGGLVQAGGSLRLSCAASGSTFYANAMGWYRQAPGKERELVAAITWGDASTYYADSVKGRFTISRDNAKNTVYLQMNSLKPEDTAVYYCAVDESYGSSSDMDYWGQGTQVTVSS | low polyreactivity
29 | QVQLVESVGGLVQAGGSLRLSCAASGSTSRIYAIGRYRKAPGKEREWVAAISRSGGSTYYADSVKGRFTISRDNAKNTVYLQMNSLKPEDTAVYYCAKDASKETSGGDYWGQGTQVTVSS | high polyreactivity
30 | QVQLVESVGGLVQAGGSLRLSCAASGYIFYGYAMGWYRQAPGKEREFVAAITVRGGSTYYADSVKGRFTISRDNAKNTVYLQMNSEKPEDTAVYYCAAAPQFTFGVGYWGQGTQVTVSS | low polyreactivity
31 | QVQLVESVGGLVQAGGSLRLSCAASVFNLKSNAMGWYRQATGKERELVAAISSSGGSTYYADSVKGRFTISRDNAKNTVYLQMNSLKPEDTAVYYCNVAQYLRARRPVDYWGHGTQVTVSS | high polyreactivity
32 | QVQLVESVGGLVQAGGSLRLSCAATGSTFGVNDMGWYRQSPGKERQFVADITTSGGSTYYADSVKWRFTISRDIAKNTVYLQMNSLKPEDTAVYYCAADLWPFEHDDYWGQGTQVTVSS | low polyreactivity
33 | QVQLVESVGGLVQAGGSLRLSCAGSGFTFLYYAMGWYRQAPGKERELVDTISKSGGSTYYADSVKGRFTISRDNAKNTDYLQMNSLKPEDTAVDYFAAVGPYRWYDYWGQGTQVTVSS | high polyreactivity
34 | QVQLVESVGGLVQAGGSLRLSCPTSGRIFTYYAMGWYRQAPGKERELVAAINSRGGSTYYADSVKGRFTISRDNAKNTVYLQMNSLKPEDSAVYYCAAVGLYSRYAYWGQGTQVSVSS | high polyreactivity
35 | QVQLVESVGGLVQAGGSLRLSSAASGFTFTHYAMGWYRQAPGKERELVAAISTSGGSTYYADSVKGRFTISRDNAKNTVYLQMNSLKPEDTAVYYCAARRDGWVQWGYYYWGQGTQVTVSS | low polyreactivity
36 | QVQLVESVGGLVQAGGSLRLSSAASGYIFFGNAMGWYRQAPGKERELVAAIRWRGTSTYYADSVKGRFTISRDNAKNTVYLQMNSLKPEDTAVYYCAKDGRVHSPYDYWGQGTQVTVSS | low polyreactivity
37 | QVQLVESVGGLVQAGGSLRLTCAASGRIFEINTMGWYRQAPGKERELVAAISRGGGSTYYADSVKGRFTISRDNAKNTVYLQMNSLKPEDTAVYYCAAASYYVEGDYWGQGTQVTVSS | low polyreactivity
38 | QVQLVESVGGLVQAGGTRRLSCDASGRTFGLNVMGWYRHAPGKERELVASIRNIGGSTYYADSVKWRFTISCDNAKNTVYLQMNSLKPEDTAVYYCAADYNLVVQGYDYWGQGTQVTVSS | high polyreactivity
39 | QVQLVESVGGLVQAGRILRISCAASGFTLYYYDKGWYRQAPGKQRELVAGISSGDSTYYADSLKGRFTISRDNAKNTVYLHMNSLKPEDTAVYYCATGDSLYYRYWSNNYWGQGTQVTVSS | high polyreactivity
40 | QVQLVESVGGLVQAGRSLRLSCAASGSIFLRNAMGWYRQPPGKERELVASITWNGASTSYADSVKGRFTISRDNAKNTVYLQMNSLKPEDTAVYYCAAVTVQDSNLKYGYWGQGTQVTVSS | low polyreactivity
41 | QVQLVESVGGLVQAGVSLRLSSAASGSTLKQYAMGWFRQSPGKERELVGAITRSGSSTYYADSVKGRFTISRDNAKNTVYLPMNRLKREDTAVYYCDVGCWKGDYYWGLGTQVTVSS | high polyreactivity
42 | QVQLVESVGGLVQEGGTLRLSCAASGSTFEVYTMGWYRQAPGKERELVAAITKNGGTTYYADSVKGRFTISRDNAKNTVYLQMNSLKPEDTAVYYCAVYYYSGYYYWDYYWGQGTQVTVSS | low polyreactivity
43 | QVQLVESVGVLVQEGGSLRLSSAASGGSLPRYAMGWYRQAPGKEMELVAVITRGGSTYYADSVKGRFTISRDNAKNTVYLQMIRLIPEDTAVYYFAKYRYQTGIFYYWGQGTQVTVSS | high polyreactivity
